Results on one molecule are retold here after paper PMC6662822, “Rational drug-design approach supported with thermodynamic studies — a peptide leader for the efficient bi-substrate inhibitor of protein kinase CK2” (Scientific Reports, 2019).

Where no end group is shown, it is not given here. 7‑COOH‑Br3Bt = not defined here

This assay addresses catalytic subunit of human protein kinase CK2 (human) (UniProt P68400).

Chain of catalytic subunit of human protein kinase CK2 (human) (P68400 whole entry): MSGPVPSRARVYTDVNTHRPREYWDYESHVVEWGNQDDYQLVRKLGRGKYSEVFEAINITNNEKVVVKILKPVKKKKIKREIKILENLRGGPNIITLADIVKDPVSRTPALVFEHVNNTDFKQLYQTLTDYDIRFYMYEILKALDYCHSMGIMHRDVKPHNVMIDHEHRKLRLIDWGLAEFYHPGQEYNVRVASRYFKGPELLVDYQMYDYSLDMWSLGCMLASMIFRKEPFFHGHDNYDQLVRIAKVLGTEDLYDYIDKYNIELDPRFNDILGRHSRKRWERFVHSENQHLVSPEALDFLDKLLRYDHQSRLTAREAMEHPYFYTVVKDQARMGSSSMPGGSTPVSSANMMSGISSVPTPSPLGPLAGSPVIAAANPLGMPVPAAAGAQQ

With K(7‑COOH‑Br3Bt)ESEEE-NH2 (reading uncertain) [bi-substrate inhibitor (KESEEE-NH2 conjugated with 7-COOH-Br3Bt)], the IC50 of inhibition of hCK2α kinase activity (ADP-Glo assay; 10 μM substrate peptide …, 10 μM ATP, 30 °C) came out at 0.67 µM.
